Target: T1, vascular endothelial growth factor (VEGF) (Homo sapiens, UniProt P15692-4)
T1 construct: vascular endothelial growth factor (VEGF-A); The SPR paragraph says only 'immobilized VEGF'; also called recombinant human VEGF
Experiment: SPR; Biacore T200; VEGF immobilised, Fabs as analyte
Conditions: both partners purified

T1 sequence (P15692 whole entry): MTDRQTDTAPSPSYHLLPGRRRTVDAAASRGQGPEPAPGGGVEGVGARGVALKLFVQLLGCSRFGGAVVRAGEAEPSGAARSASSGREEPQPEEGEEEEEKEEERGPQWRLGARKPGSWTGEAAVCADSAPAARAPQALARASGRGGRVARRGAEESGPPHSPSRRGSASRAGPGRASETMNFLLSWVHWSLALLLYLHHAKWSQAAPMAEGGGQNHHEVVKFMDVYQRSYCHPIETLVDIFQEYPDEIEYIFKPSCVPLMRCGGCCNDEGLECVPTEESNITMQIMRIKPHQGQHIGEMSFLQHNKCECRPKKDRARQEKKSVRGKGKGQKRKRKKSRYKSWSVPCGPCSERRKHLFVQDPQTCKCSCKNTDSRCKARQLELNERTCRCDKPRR

| Binder | Kd [nM] |
| --- | --- |
| RBZ–3 (Fab, V domains shown, as the light chain of m1 (ranibizumab) before CDR-L1; CDR-L1, same as ranibizumab; as the light chain of m1 (ranibizumab) between CDR-L1 and CDR-L2; CDR-L2, changed from FTSSLHS of ranibizumab; as the light chain of m1 (ranibizumab) after CDR-L2; as the heavy chain of m1 (ranibizumab Fab), unchanged; Charge variant, relative charge -3 against ranibizumab; changes only in CDR-L2; also called TA_2; …) VH: EVQLVESGGGLVQPGGSLRLSCAASGYDFTHYGMNWVRQAPGKGLEWVGWINTYTGEPTYAADFKRRFTFSLDTSKSTAYLQMNSLRAEDTAVYYCAKYPYYYGTSHWYFDVWGQGTLVTVSS VL: DIQLTQSPSSLSASVGDRVTITCSASQDISNYLNWYQQKPGKAPKVLIYDTSDLESGVPSRFSGSGSGTDFTLTISSLQPEDFATYYCQQYSTVPWTFGQGTKVEIK | < 5 |
| RBZ+7 (Fab, V domains shown, as the light chain of m1 (ranibizumab) before CDR-L1; as the light chain of m1 (ranibizumab) between CDR-L1 and CDR-L2; CDR-L2, changed from FTSSLHS of ranibizumab; as the light chain of m1 (ranibizumab) after CDR-L2; as the heavy chain of m1 (ranibizumab Fab), unchanged; Charge variant, relative charge +7 against ranibizumab; also called TA_3; source: E. coli, 10 L fermentation, purified …) VH: EVQLVESGGGLVQPGGSLRLSCAASGYDFTHYGMNWVRQAPGKGLEWVGWINTYTGEPTYAADFKRRFTFSLDTSKSTAYLQMNSLRAEDTAVYYCAKYPYYYGTSHWYFDVWGQGTLVTVSS VL: DIQLTQSPSSLSASVGDRVTITCRARQGIRNYLNWYQQKPGKAPKVLIYKTSRRHSGVPSRFSGSGSGTDFTLTISSLQPEDFATYYCQQYSTVPWTFGQGTKVEIK | < 5 |
| RBZ-HI low (Fab, V domains shown, as the light chain of m1 (ranibizumab) before CDR-L1; as the light chain of m1 (ranibizumab) between CDR-L1 and CDR-L2; CDR-L2, changed from FTSSLHS of ranibizumab; as the light chain of m1 (ranibizumab) after CDR-L2; as the heavy chain of m1 (ranibizumab Fab), unchanged; Hydrophobicity variant; source: E. coli, 10 L fermentation, purified (Protein G-Sepharose, cation exchange Hitrap SP HP)) VH: EVQLVESGGGLVQPGGSLRLSCAASGYDFTHYGMNWVRQAPGKGLEWVGWINTYTGEPTYAADFKRRFTFSLDTSKSTAYLQMNSLRAEDTAVYYCAKYPYYYGTSHWYFDVWGQGTLVTVSS VL: DIQLTQSPSSLSASVGDRVTITCQASQDISNSLNWYQQKPGKAPKVLIYSTSNLHSGVPSRFSGSGSGTDFTLTISSLQPEDFATYYCQQYSTVPWTFGQGTKVEIK | < 5 |
| RBZ-HI high (Fab, V domains shown, as the light chain of m1 (ranibizumab) before CDR-L1; as the light chain of m1 (ranibizumab) between CDR-L1 and CDR-L2; CDR-L2, changed from FTSSLHS of ranibizumab; as the light chain of m1 (ranibizumab) after CDR-L2; as the heavy chain of m1 (ranibizumab Fab), unchanged; Hydrophobicity variant; source: E. coli, 10 L fermentation, purified (Protein G-Sepharose, cation exchange Hitrap SP HP)) VH: EVQLVESGGGLVQPGGSLRLSCAASGYDFTHYGMNWVRQAPGKGLEWVGWINTYTGEPTYAADFKRRFTFSLDTSKSTAYLQMNSLRAEDTAVYYCAKYPYYYGTSHWYFDVWGQGTLVTVSS VL: DIQLTQSPSSLSASVGDRVTITCSVSQVISSWLAWYQQKPGKAPKVLIYFASSLQTGVPSRFSGSGSGTDFTLTISSLQPEDFATYYCQQYSTVPWTFGQGTKVEIK | < 5 |

— PMC6827426 (Translational Vision Science & Technology, 2019)
